T1: FcγRIIa H (FcγRIIa, allotype with His at position 131), extracellular domain with C-terminal His tag (human, UniProt P12318 34-217)
T1 construct: extracellular domain; also called FcgRIIa H; 2aH; not shown: His tag at the C terminus
T1 sequence (looked up): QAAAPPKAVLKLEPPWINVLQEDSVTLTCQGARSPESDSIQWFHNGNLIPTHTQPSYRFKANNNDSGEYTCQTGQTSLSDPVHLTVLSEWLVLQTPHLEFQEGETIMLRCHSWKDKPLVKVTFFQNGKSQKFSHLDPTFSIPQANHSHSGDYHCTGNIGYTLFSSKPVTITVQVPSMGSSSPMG

T2: FcγRIIb, extracellular domain with C-terminal His tag (human, UniProt P31994 43-217)
T2 construct: extracellular domain; also called FcgRIIb; 2b; not shown: His tag at the C terminus
T2 sequence (looked up): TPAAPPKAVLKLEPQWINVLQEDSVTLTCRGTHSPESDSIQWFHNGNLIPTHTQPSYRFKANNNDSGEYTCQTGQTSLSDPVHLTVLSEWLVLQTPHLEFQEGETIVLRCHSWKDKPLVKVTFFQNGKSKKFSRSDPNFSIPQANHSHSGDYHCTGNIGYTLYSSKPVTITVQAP


Columns and labels:
[1] = molecular target: T1, FcγRIIa H (FcγRIIa, allotype with His …); assay: SPR (Biacore); He/Con_2aH divided by He/Con_2b (FcγRIIb)
[2] = molecular target: T2, FcγRIIb, extracellular domain with …; assay: SPR (Biacore), relative binding vs GpH7-A5/GpH7-B3/GpL16-k0
[3] = molecular target: T1, FcγRIIa H (FcγRIIa, allotype with His …); assay: as above

Row | Binder | He_2aH/2b (IIaH/IIb) [1] [ratio] | He/Con_2b [2] | He/Con_2aH [3]
1 | GpH7-A5/GpH7-B3 variant N325_13S/GpL16-k0 (antibody, human IgG1, kappa, Heterodimerized anti-glypican-3 IgG1; mutation in one H chain only; also called He Ab) heavy 1: not shown heavy 2: not shown light: DIVMTQSPLSLPVTPGEPASISCQASESLVHSNRNTYLHWYLQKPGQSPQLLIYKVSNRFSGVPDRFSGSGSGTDFTLKISRVEAEDVGVYYCSQNTHVPPTFGQGTKVEIERTVAAPSVFIFPPSDEQLKSGTASVVCLLNNFYPREAKVQWKVDNALQSGNSQESVTEQDSKDSTYSLSSTLTLSKADYEKHKVYACEVTHQGLSSPVTKSFNRGEC | 0.45 | 177 % of HeCon Ab (=100) | 79.7 % of HeCon Ab (=100)
2 | GpH7-A5/GpH7-B3 variant N325_16H/GpL16-k0 (antibody, human IgG1, kappa, Heterodimerized anti-glypican-3 IgG1; mutation in one H chain only; also called He Ab) heavy 1: not shown heavy 2: not shown light: DIVMTQSPLSLPVTPGEPASISCQASESLVHSNRNTYLHWYLQKPGQSPQLLIYKVSNRFSGVPDRFSGSGSGTDFTLKISRVEAEDVGVYYCSQNTHVPPTFGQGTKVEIERTVAAPSVFIFPPSDEQLKSGTASVVCLLNNFYPREAKVQWKVDNALQSGNSQESVTEQDSKDSTYSLSSTLTLSKADYEKHKVYACEVTHQGLSSPVTKSFNRGEC | 0.68 | 70.1 % of HeCon Ab (=100) | 48 % of HeCon Ab (=100)
3 | GpH7-A5/GpH7-B3 variant P331_10E/GpL16-k0 (antibody, human IgG1, kappa, Heterodimerized anti-glypican-3 IgG1; mutation in one H chain only; also called He Ab) heavy 1: not shown heavy 2: not shown light: DIVMTQSPLSLPVTPGEPASISCQASESLVHSNRNTYLHWYLQKPGQSPQLLIYKVSNRFSGVPDRFSGSGSGTDFTLKISRVEAEDVGVYYCSQNTHVPPTFGQGTKVEIERTVAAPSVFIFPPSDEQLKSGTASVVCLLNNFYPREAKVQWKVDNALQSGNSQESVTEQDSKDSTYSLSSTLTLSKADYEKHKVYACEVTHQGLSSPVTKSFNRGEC | 0.75 | 116 % of HeCon Ab (=100) | 87.1 % of HeCon Ab (=100)
4 | GpH7-A5/GpH7-B3 variant P331_04F/GpL16-k0 (antibody, human IgG1, kappa, Heterodimerized anti-glypican-3 IgG1; mutation in one H chain only; also called He Ab) heavy 1: not shown heavy 2: not shown light: DIVMTQSPLSLPVTPGEPASISCQASESLVHSNRNTYLHWYLQKPGQSPQLLIYKVSNRFSGVPDRFSGSGSGTDFTLKISRVEAEDVGVYYCSQNTHVPPTFGQGTKVEIERTVAAPSVFIFPPSDEQLKSGTASVVCLLNNFYPREAKVQWKVDNALQSGNSQESVTEQDSKDSTYSLSSTLTLSKADYEKHKVYACEVTHQGLSSPVTKSFNRGEC | 0.77 | 110 % of HeCon Ab (=100) | 84.7 % of HeCon Ab (=100)
5 | GpH7-A5/GpH7-B3 variant N325_14T/GpL16-k0 (antibody, human IgG1, kappa, Heterodimerized anti-glypican-3 IgG1; mutation in one H chain only; also called He Ab) heavy 1: not shown heavy 2: not shown light: DIVMTQSPLSLPVTPGEPASISCQASESLVHSNRNTYLHWYLQKPGQSPQLLIYKVSNRFSGVPDRFSGSGSGTDFTLKISRVEAEDVGVYYCSQNTHVPPTFGQGTKVEIERTVAAPSVFIFPPSDEQLKSGTASVVCLLNNFYPREAKVQWKVDNALQSGNSQESVTEQDSKDSTYSLSSTLTLSKADYEKHKVYACEVTHQGLSSPVTKSFNRGEC | 0.68 | 91.6 % of HeCon Ab (=100) | 62.7 % of HeCon Ab (=100)
6 | GpH7-A5/GpH7-B3 variant N325_15Y/GpL16-k0 (antibody, human IgG1, kappa, Heterodimerized anti-glypican-3 IgG1; mutation in one H chain only; also called He Ab) heavy 1: not shown heavy 2: not shown light: DIVMTQSPLSLPVTPGEPASISCQASESLVHSNRNTYLHWYLQKPGQSPQLLIYKVSNRFSGVPDRFSGSGSGTDFTLKISRVEAEDVGVYYCSQNTHVPPTFGQGTKVEIERTVAAPSVFIFPPSDEQLKSGTASVVCLLNNFYPREAKVQWKVDNALQSGNSQESVTEQDSKDSTYSLSSTLTLSKADYEKHKVYACEVTHQGLSSPVTKSFNRGEC | 0.41 | 99.5 % of HeCon Ab (=100) | 41.2 % of HeCon Ab (=100)
7 | GpH7-A5/GpH7-B3 variant P331_03V/GpL16-k0 (antibody, human IgG1, kappa, Heterodimerized anti-glypican-3 IgG1; mutation in one H chain only; also called He Ab) heavy 1: not shown heavy 2: not shown light: DIVMTQSPLSLPVTPGEPASISCQASESLVHSNRNTYLHWYLQKPGQSPQLLIYKVSNRFSGVPDRFSGSGSGTDFTLKISRVEAEDVGVYYCSQNTHVPPTFGQGTKVEIERTVAAPSVFIFPPSDEQLKSGTASVVCLLNNFYPREAKVQWKVDNALQSGNSQESVTEQDSKDSTYSLSSTLTLSKADYEKHKVYACEVTHQGLSSPVTKSFNRGEC | 0.7 | 119 % of HeCon Ab (=100) | 82.5 % of HeCon Ab (=100)
8 | GpH7-A5/GpH7-B3 variant P331_16H/GpL16-k0 (antibody, human IgG1, kappa, Heterodimerized anti-glypican-3 IgG1; mutation in one H chain only; also called He Ab) heavy 1: not shown heavy 2: not shown light: DIVMTQSPLSLPVTPGEPASISCQASESLVHSNRNTYLHWYLQKPGQSPQLLIYKVSNRFSGVPDRFSGSGSGTDFTLKISRVEAEDVGVYYCSQNTHVPPTFGQGTKVEIERTVAAPSVFIFPPSDEQLKSGTASVVCLLNNFYPREAKVQWKVDNALQSGNSQESVTEQDSKDSTYSLSSTLTLSKADYEKHKVYACEVTHQGLSSPVTKSFNRGEC | 0.73 | 116 % of HeCon Ab (=100) | 84.5 % of HeCon Ab (=100)
9 | GpH7-A5/GpH7-B3 variant P331_20W/GpL16-k0 (antibody, human IgG1, kappa, Heterodimerized anti-glypican-3 IgG1; mutation in one H chain only; also called He Ab) heavy 1: not shown heavy 2: not shown light: DIVMTQSPLSLPVTPGEPASISCQASESLVHSNRNTYLHWYLQKPGQSPQLLIYKVSNRFSGVPDRFSGSGSGTDFTLKISRVEAEDVGVYYCSQNTHVPPTFGQGTKVEIERTVAAPSVFIFPPSDEQLKSGTASVVCLLNNFYPREAKVQWKVDNALQSGNSQESVTEQDSKDSTYSLSSTLTLSKADYEKHKVYACEVTHQGLSSPVTKSFNRGEC | 0.75 | 111 % of HeCon Ab (=100) | 82.8 % of HeCon Ab (=100)
10 | GpH7-A5/GpH7-B3 variant S324_05P/GpL16-k0 (antibody, human IgG1, kappa, Heterodimerized anti-glypican-3 IgG1; mutation in one H chain only; also called He Ab) heavy 1: not shown heavy 2: not shown light: DIVMTQSPLSLPVTPGEPASISCQASESLVHSNRNTYLHWYLQKPGQSPQLLIYKVSNRFSGVPDRFSGSGSGTDFTLKISRVEAEDVGVYYCSQNTHVPPTFGQGTKVEIERTVAAPSVFIFPPSDEQLKSGTASVVCLLNNFYPREAKVQWKVDNALQSGNSQESVTEQDSKDSTYSLSSTLTLSKADYEKHKVYACEVTHQGLSSPVTKSFNRGEC | 0.59 | 94.7 % of HeCon Ab (=100) | 55.5 % of HeCon Ab (=100)
11 | GpH7-A5/GpH7-B3 variant P331_15Y/GpL16-k0 (antibody, human IgG1, kappa, Heterodimerized anti-glypican-3 IgG1; mutation in one H chain only; also called He Ab) heavy 1: not shown heavy 2: not shown light: DIVMTQSPLSLPVTPGEPASISCQASESLVHSNRNTYLHWYLQKPGQSPQLLIYKVSNRFSGVPDRFSGSGSGTDFTLKISRVEAEDVGVYYCSQNTHVPPTFGQGTKVEIERTVAAPSVFIFPPSDEQLKSGTASVVCLLNNFYPREAKVQWKVDNALQSGNSQESVTEQDSKDSTYSLSSTLTLSKADYEKHKVYACEVTHQGLSSPVTKSFNRGEC | 0.75 | 114 % of HeCon Ab (=100) | 86 % of HeCon Ab (=100)
12 | GpH7-A5/GpH7-B3 variant N325_20W/GpL16-k0 (antibody, human IgG1, kappa, Heterodimerized anti-glypican-3 IgG1; mutation in one H chain only; also called He Ab) heavy 1: not shown heavy 2: not shown light: DIVMTQSPLSLPVTPGEPASISCQASESLVHSNRNTYLHWYLQKPGQSPQLLIYKVSNRFSGVPDRFSGSGSGTDFTLKISRVEAEDVGVYYCSQNTHVPPTFGQGTKVEIERTVAAPSVFIFPPSDEQLKSGTASVVCLLNNFYPREAKVQWKVDNALQSGNSQESVTEQDSKDSTYSLSSTLTLSKADYEKHKVYACEVTHQGLSSPVTKSFNRGEC | 0.28 | 169 % of HeCon Ab (=100) | 47.2 % of HeCon Ab (=100)
13 | GpH7-A5/GpH7-B3 variant P331_07I/GpL16-k0 (antibody, human IgG1, kappa, Heterodimerized anti-glypican-3 IgG1; mutation in one H chain only; also called He Ab) heavy 1: not shown heavy 2: not shown light: DIVMTQSPLSLPVTPGEPASISCQASESLVHSNRNTYLHWYLQKPGQSPQLLIYKVSNRFSGVPDRFSGSGSGTDFTLKISRVEAEDVGVYYCSQNTHVPPTFGQGTKVEIERTVAAPSVFIFPPSDEQLKSGTASVVCLLNNFYPREAKVQWKVDNALQSGNSQESVTEQDSKDSTYSLSSTLTLSKADYEKHKVYACEVTHQGLSSPVTKSFNRGEC | 0.68 | 114 % of HeCon Ab (=100) | 77.4 % of HeCon Ab (=100)

Source: US20150344570A1 (published 2015)
